Reference: the nanobody polyreactivity screen of Harvey et al. (2022)

Assay: yeast display, Sf9 membrane polyspecificity reagent, FACS + sequencing; frameworks hold sequencing errors
How it was run: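 Nanobodies came from a synthetic yeast display library in Saccharomyces cerevisiae BJ5465, induced with galactose for 36–48 hours and stained for 1 hour at 4 °C with 10% biotinylated, detergent-solubilized Sf9 membrane reagent. Cells were enriched on streptavidin microbeads and then FACS-sorted, with low and high (top ~1%) gates set on anti-HA fluorescence for expression and streptavidin fluorescence for reagent binding. Each polyreactivity label reflects the gate a clone came from. Genes were amplified by colony PCR, sequenced by MiSeq 2 × 250 and filtered by CDR length.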

For “QVQLVESGGGLVQAGGSLRLSCAASGRIFQRNAMGWYRQEPRKEREFVAAITKSGGGTYADSVKGRFTISRDNAKNTVYLQMNSLKPEDTAVYFCAADSRGEDYYYWGQGTQVTVSS”, the “polyreactivity (PSR sort gate)” value was “high polyreactivity”.
